Laboratory results taken from US20230212285A1 (published 2023).
Like-named read-outs stand apart in the source and are kept apart here.

Experiments:
[1] = biological target: T1, human FcγRI, His6-tagged (human, UniProt P12314 16-288); test: SPR, 1:1 kinetic
T1 construct: also called FcG RI
Procedure: (§1) Interaction affinities for IgGs were determined by surface plasmon resonance using a BIACORE® T200 instrument. For most analyses, His6-tagged FcγRI, FcγRIIa (167R and 167H variants), FcγRIIb, FcγRIIIa (176F and 176 V variants), and FcγRIIIb receptors (all Sino Biological) were captured on a CM5 sensor chip coated with an anti-HIS antibody by standard amine coupling. Receptor-specific formats of analyses were then applied, as below.
Regeneration with 2× injections glycine pH 1.5 and analysis using 1:1 fit.

[2] = biological target: T2, human FcγRIIa 167H variant, His6-tagged (human, UniProt P12318 34-218); test: SPR, steady state
T2 construct: also called FcG RIIa (167H)
T2 sequence (looked up): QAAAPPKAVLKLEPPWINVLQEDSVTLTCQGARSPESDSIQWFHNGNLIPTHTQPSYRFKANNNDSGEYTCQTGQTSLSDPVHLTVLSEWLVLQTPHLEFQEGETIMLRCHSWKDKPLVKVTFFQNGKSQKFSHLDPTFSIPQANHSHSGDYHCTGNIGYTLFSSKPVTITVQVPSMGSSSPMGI
Procedure: as §1

[3] = biological target: T3, human FcγRIIb, His6-tagged (human, UniProt P31994 43-217); test: SPR, steady state
T3 construct: also called FcG RIIb
T3 sequence (looked up): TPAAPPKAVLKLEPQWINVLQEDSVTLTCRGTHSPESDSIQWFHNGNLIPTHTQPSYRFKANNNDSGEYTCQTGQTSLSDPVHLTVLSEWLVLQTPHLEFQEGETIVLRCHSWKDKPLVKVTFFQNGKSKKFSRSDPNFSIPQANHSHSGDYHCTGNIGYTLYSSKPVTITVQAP
Procedure: as §1

[4] = biological target: T4, human FcγRIIIa 176F variant, His6-tagged (human, UniProt P08637 17-208); test: SPR, steady state
T4 construct: also called FcG RIIIa (176F)
Procedure: as §1

[5] = biological target: T5, human FcγRIIIa 176V variant, His6-tagged (human, UniProt P08637 17-208); test: SPR, steady state
T5 construct: also called FcG RIIIa (176V)
Procedure: as §1

[6] = biological target: T6, human FcγRIIIb, His6-tagged (human, UniProt O75015 17-200); test: SPR, steady state
T6 construct: also called FcG RIIIb
Procedure: as §1

[7] = biological target: T7, human FcγRIIa 167R variant, His6-tagged (human, UniProt P12318 34-218); test: SPR, steady state
T7 construct: also called FcG RIIa (167R)
T7 sequence (looked up): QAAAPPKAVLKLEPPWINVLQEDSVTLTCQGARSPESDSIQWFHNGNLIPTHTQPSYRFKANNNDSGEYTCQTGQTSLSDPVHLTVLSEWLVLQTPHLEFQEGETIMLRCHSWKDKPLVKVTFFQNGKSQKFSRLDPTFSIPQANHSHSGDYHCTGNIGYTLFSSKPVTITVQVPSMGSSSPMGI
Procedure: as §1

[8] = biological target: T8, human FcRn (human, UniProt P55899 24-297, limits assumed); test: SPR, steady state, pH 6
T8 construct: also called hFcRn
Procedure: The interactions between monomeric IgG and FcRn are relatively low affinity and pH-sensitive interactions, so ‘steady state’ affinity analyses were performed under the following conditions: A CM5 chip was directly coupled with hFcRn in sodium acetate pH 5.5 using standard amine chemistry. Running buffer was PBS 0.05% P20+150 mM NaCl (pH 6.0 or pH 7.4), flow rate 30 μl/min, 5 point three-fold dilutions of purified antibodies from 3000 nM to 37.0 nM applied with an association time of 18s, dissociation time 100 s.

[9] = biological target: T9, cynomolgus monkey C-KIT-Fc protein (cynomolgus monkey); test: direct ELISA, IgG at 1 µg/ml
T9 construct: also called cyno C-KIT-Fc; cyno C-KIT

[10] = biological target: T9, cynomolgus monkey C-KIT-Fc protein; test: HTRF competition vs terbium-labelled h37M IgG1
[11] = biological target: T9, cynomolgus monkey C-KIT-Fc protein; test: HTRF competition vs terbium-labelled h37M IgG1; remark: listed apart in the source

T4 sequence (P08637 17-208 limits assumed, change not shown): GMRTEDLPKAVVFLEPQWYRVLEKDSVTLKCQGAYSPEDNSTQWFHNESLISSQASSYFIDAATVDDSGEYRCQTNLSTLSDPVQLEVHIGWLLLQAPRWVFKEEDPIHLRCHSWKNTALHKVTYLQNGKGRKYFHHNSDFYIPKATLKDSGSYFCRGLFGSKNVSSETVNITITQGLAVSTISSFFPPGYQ
T6 sequence (O75015 17-200 limits assumed): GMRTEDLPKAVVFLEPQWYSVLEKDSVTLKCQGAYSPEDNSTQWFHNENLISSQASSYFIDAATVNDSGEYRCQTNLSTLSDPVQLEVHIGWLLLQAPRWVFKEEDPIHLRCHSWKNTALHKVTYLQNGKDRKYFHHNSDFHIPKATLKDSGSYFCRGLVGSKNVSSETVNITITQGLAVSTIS
T1 sequence (P12314 16-288 limits assumed): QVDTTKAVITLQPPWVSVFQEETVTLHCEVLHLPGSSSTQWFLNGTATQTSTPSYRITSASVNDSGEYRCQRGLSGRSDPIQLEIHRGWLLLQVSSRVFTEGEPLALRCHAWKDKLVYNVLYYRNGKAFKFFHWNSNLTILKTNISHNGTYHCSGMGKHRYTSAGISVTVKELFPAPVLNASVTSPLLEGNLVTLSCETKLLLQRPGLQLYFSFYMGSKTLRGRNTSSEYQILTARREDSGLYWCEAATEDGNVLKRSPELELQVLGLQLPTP
T8 sequence (P55899 24-297 limits assumed, form in doubt): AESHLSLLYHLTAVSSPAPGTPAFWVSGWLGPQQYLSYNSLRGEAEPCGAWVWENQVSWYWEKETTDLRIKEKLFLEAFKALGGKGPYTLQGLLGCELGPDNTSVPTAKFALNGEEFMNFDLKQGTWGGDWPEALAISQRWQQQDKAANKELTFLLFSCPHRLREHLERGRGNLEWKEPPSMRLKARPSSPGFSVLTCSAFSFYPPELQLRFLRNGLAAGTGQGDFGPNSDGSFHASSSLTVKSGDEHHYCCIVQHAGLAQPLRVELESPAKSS
T5 sequence (P08637 other isoform, or with tags, fused parts or gaps mutant limits assumed): as the sequence (P08637 17-208 limits assumed, change not shown) above, with F160V counted along it

B1: h37M IgG1 (antibody)
heavy: not shown
VL: DIVMTQSPSSLSASVGDRVTITCKASQNVRTNVAWYQQKPGKAPKALIYSASYRYSGVPDRFTGSGSGTDFTLTISSLQPEDFADYFCQQYNSYPRTFGGGTKVEIK
notes: Humanized 37M, human IgG1; Terbium-labelled as tracer in HTRF; also called C-KIT-h37M; IgG1-h37M; copies: 2 + 2
[1]
  Kd: 1.06 nM
[2]
  Kd: 512 nM
[3]
  Kd: 1440 nM
[4]
  Kd: 82 nM
[5]
  Kd: 41.1 nM
[6]
  Kd: 249 nM
[7]
  Kd: 447 nM
[8]
  Kd: 1240 nM
[9]
  OD450 nm: > 2 OD450 nm
[10]
  IC50: 0.035 µg/mL
[11]
  IC50: 0.036 µg/mL
